Source: paper PMC2563799
Where two headings read alike, the source gives them in different places.

B1: Ibβ-TM (peptide)
chain: GSGGGLCWGALAAQLALLGLGLLHALLLVLLLSRLRRLRARARARAAARLSLTDPLVAERAGTDES

Legend:
Assay in all cases: thiol-disulfide exchange
[1] = biological target: Ibα-TM (human)
[2] = biological target: Ibα-TM (human); remark: listed apart in the source
[3] = biological target: Ibα-TM (human); remark: listed apart in the source
[4] = biological target: (Ibβ-TM)-SS-(Ibα-TM)-SS-(Ibβ-TM) peptide complex (human)
[5] = biological target: (Ibβ-TM)-SS-(Ibα-TM)-SS-(Ibβ-TM) peptide complex (human); remark: listed apart in the source
[6] = biological target: (Ibβ-TM)-SS-(Ibα-TM)-SS-(Ibβ-TM) peptide complex (human); remark: listed apart in the source

| Binder | αβ2 production (% of Ibβ-TM) [1] | αβ2 production (% of Ibβ-TM) [2] | αβ2 production (% of Ibβ-TM) [3] | αβ2 production with IX-TM (% of Ibβ-TM) [4] | αβ2 production with IX-TM (% of Ibβ-TM) [5] | αβ2 production with IX-TM (% of Ibβ-TM) [6] |
| --- | --- | --- | --- | --- | --- | --- |
| B1 | 13.5 % of Ibβ-TM | 27.7 % of Ibβ-TM | 20.5 % of Ibβ-TM | – | – | – |
| GSVRPGVLWDVALVAVAALGLALLAGLLNATTEALD [IX-TM] | – | – | – | 41.2 % of Ibβ-TM | 32.8 % of Ibβ-TM | 29.4 % of Ibβ-TM |
